Data: PMC9399094
One block for each substance: values may come before it.

Key:
[1] = biological target: S.c. nucleosome: recombinant S. cerevisiae histone octamer (H2A K120C, fluorescently labeled) assembled on λ_(ARS1) DNA (S. cerevisiae) (UniProt P04911); experiment: single-molecule fluorescence colocalisation (dual-trap optical tweezers with confocal microscopy); nucleosomes sparsely assembled on λ_(ARS1) DNA tethered between streptavidin beads; 2 nM Cy3- or LD650-ORC and 5 nM Cdc6 in solution; 25 mM Tris-OAc pH 7.5, 50 mM potassium glutamate, 10 mM Mg(OAc)2, 2.5 mM ATP; room temperature
[2] = system: ORC (Orc1-6);Cdc6 (Saccharomyces cerevisiae (overexpressed in strain OY001);Saccharomyces cerevisiae); experiment: single-molecule fluorescence, optical tweezers; settings: biotinylated ends, H2A K120C, Single-molecule optical tweezers with confocal fluorescence, ATP present, 2 nM ORC, 5 nM Cdc6, 10 nM MCM, high-salt wash 0.5 M NaCl, buffer, pH and temperature …
[3] = biological target: S.c. Mcm2-7 complex with S6- and 3xFlag-tagged Mcm3, fluorescently labeled (S. cerevisiae) (UniProt P29469); experiment: single-molecule photobleaching step counting (optical tweezers with confocal microscopy); LD650-MCM on nucleosome-free λ_(ARS1) DNA with unlabeled ORC, Cdc6, Cdt1; oxygen scavenging system omitted; labeling efficiency of MCM ~60%; two hexamers to a double hexamer on DNA
[4] = system: ORC (Orc1-6);MCM (Mcm2-7);Cdc6;Cdt1 (Saccharomyces cerevisiae (overexpressed in strain OY001);Saccharomyces cerevisiae (overexpressed in strain OY001);Saccharomyces cerevisiae;Saccharomyces cerevisiae); experiment: single-molecule fluorescence, optical tweezers; settings: 2 nM ORC, Single-molecule optical tweezers with confocal fluorescence, ATP present, 5 nM Cdc6, 10 nM MCM, high-salt wash 0.5 M NaCl, buffer, pH and temperature …

fraction of nucleosomes with a stably bound ORC at 2 nM ORC [1]: > 90%
Substance: S.c. origin recognition complex (Orc1-6) with S6-3xFlag-Orc1, fluorescently labeled (from UniProt P54784 1-914; P32833 1-620; P54790 1-616; P54791 1-529; P50874 1-479; P38826 1-435)

Substance: S.c. nucleosomes on λARS1 DNA (all positions)
binding signal (% of nucleosomes with stably bound ORC) ([2]; S. cerevisiae octamer): > 90

fraction of MCM with two-step photobleaching [3]: 36% | stoichiometry N [3]: 2
Substance: S.c. Mcm2-7 complex with S6- and 3xFlag-tagged Mcm3, fluorescently labeled, P29469 1-868; P24279 1-971; P30665 1-933; P29496 1-775; P53091 1-1017; P38132 1-845

Substance: λARS1 DNA, non-ARS1 positions
binding signal ([4]; 10 nM MCM, 5 nM Cdc6, biotinylated ends, scale: % of stably bound MCM located at non-ARS1 positions): 86 | binding signal ([4]; 0.5 M NaCl wash, biotinylated ends, scale: % of MCM loaded): 25

Substance: X.l. nucleosomes on λARS1 DNA (all positions)
binding signal (% of nucleosomes with stably bound ORC) ([2]; Xenopus laevis octamer): > 90

Substance: λARS1 DNA, ARS1 site
binding signal ([4]; 0.5 M NaCl wash, biotinylated ends (biotin-11-dUTP, biotin-14-dCTP fill-in), scale: % of MCM loaded): 62
